In PMC12786156 one finds stoichiometry N data, which are given here for one substance.

The target in the test is Xyloglucanase TpXEG12a from Talaromyces pinophilus (Talaromyces pinophilus). In words: SEC; gel filtration on Superdex 75 Increase, 20 mM Tris-HCl, 150 mM NaCl, pH 7.5; calibrated with molecular mass standards. A general note: In gel filtration, larger molecules generally elute earlier.

A word on the stoichiometry N: it is a count of units in the complex or per binding partner.

Turning to “Xyloglucanase TpXEG12a from Talaromyces pinophilus (enzyme)”, the stoichiometry N is 2.
